Test results reported in patent publication US20240101668A1 (WUGEN, published 2024).

T1: huCLL1-K244-Avi-Tev-His (human, UniProt Q5QGZ9 65-265)
T1 construct: extracellular domain
T1 sequence (looked up): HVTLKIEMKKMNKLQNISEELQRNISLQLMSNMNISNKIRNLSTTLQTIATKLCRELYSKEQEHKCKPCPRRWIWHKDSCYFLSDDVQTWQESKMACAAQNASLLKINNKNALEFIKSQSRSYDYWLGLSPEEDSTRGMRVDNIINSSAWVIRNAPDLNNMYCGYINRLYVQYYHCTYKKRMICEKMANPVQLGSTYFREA

T2: huCLL1-Q244-Avi-Tev-His (human, UniProt Q5QGZ9 65-265)
T2 construct: extracellular domain; also called CLL-1 K244Q
T2 sequence (looked up): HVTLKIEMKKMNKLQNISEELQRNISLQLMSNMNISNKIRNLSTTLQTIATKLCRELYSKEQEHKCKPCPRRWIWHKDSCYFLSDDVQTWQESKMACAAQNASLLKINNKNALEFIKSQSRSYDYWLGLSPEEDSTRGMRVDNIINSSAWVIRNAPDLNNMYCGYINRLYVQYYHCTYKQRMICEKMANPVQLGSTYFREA


Assays:
[1] = target: T3, huCD33-R69 stably expressed on Jurkat cells (human, UniProt P20138 18-364); experiment: FACS on cells;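 also: fixed Jurkat cells bearing either CD33 variant, barcoded by dye, exposed to myc-tagged scFv periplasmic extracts, detected with anti-myc PE antibody and read by flow cytometry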
T3 construct: whole, on cells; >200,000 receptors per cell; also called CD33 WT; CD33^ARG69

[2] = target: T4, huCD33-G69 stably expressed on Jurkat cells (human, UniProt P20138 18-364); experiment: FACS on cells;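 also: fixed Jurkat cells bearing either CD33 variant, barcoded by dye, exposed to myc-tagged scFv periplasmic extracts, detected with anti-myc PE antibody and read by flow cytometry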
T4 construct: whole, on cells; >200,000 receptors per cell; also called CD33 Mutant; CD33 R69G

[3] = target: T5, huCD33-G69-Fc recombinant protein (human, UniProt P20138 18-259); experiment: BLI;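 also: scFvs from periplasmic extracts captured on biosensors via anti-V5 antibody, exposed to recombinant huCD33 variants for 2 min, 5 min dissociation, scored as binding, no binding or ambiguous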
T5 construct: extracellular domain; also called CD33 R69G
Experimental: (§1) Discovered scFvs were analyzed for binding to huCD33-R69-His or huCD33-G69-Fc recombinant proteins (for anti-CD33 scFvs; for CLL-1 scFvs, huCLL1-K244-Avi-Tev-His or huCLL1-Q244-Avi-Tev-His were used; for FLT3, huFLT3-T227-His or huFLT3-M227-Fc were used) using BLI on a ForteBio Octet HTX instrument. Streptavidin-coated biosensors were loaded with biotinylated anti-V5 tag monoclonal antibody for 5 min and were then quenched and blocked with 20 μM amine-PEG2-Biotin for 5 min. scFvs were captured on biosensors from scFv clone periplasmic extracts. huCD33 (or huCLL-1, or huFLT3) proteins were then associated with the captured scFvs for 2 minutes, followed by dissociation with buffer (1×HBST [10 mM HEPES pH 7.4, 150 mM NaCl, 0.05% Tween-20], 1 g/L BSA) for 5 minutes. […] Data was fitted with 1:1 Langmuir equation and off-rate values were reported.

huCLL1-K244-Avi-Tev-His = target: T1, huCLL1-K244-Avi-Tev-His; experiment: BLI
Experimental: as §1
(§2) Analogous methods were used to assess selectivity of binding of polypeptides to CLL-1 K244 or CLL-1 Q244.

huCLL1-Q244-Avi-Tev-His = target: T2, huCLL1-Q244-Avi-Tev-His; experiment: BLI
Experimental: as §1, §2

T3 sequence (P20138 18-364): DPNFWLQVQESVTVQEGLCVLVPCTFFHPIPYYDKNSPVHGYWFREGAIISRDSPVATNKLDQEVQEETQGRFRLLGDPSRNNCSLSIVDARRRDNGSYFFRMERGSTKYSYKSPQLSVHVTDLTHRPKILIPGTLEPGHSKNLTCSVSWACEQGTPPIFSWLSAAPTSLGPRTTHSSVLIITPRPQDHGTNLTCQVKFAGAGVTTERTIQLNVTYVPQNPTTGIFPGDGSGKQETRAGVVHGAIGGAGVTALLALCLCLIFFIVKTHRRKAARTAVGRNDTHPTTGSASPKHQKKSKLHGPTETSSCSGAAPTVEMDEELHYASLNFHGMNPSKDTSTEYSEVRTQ
T5 sequence (P20138 18-259 R69G): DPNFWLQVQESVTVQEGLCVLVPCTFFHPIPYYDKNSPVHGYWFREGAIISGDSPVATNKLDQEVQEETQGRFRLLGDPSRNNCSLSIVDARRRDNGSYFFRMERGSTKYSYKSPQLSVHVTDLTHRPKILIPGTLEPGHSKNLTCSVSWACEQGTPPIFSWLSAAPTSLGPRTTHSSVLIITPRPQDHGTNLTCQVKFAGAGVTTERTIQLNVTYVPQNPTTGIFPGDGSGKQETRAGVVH
T4 sequence (P20138 18-364 R69G): as the sequence (P20138 18-364) above, with R52G counted along it

Row | Binder | geometric mean MFI fold change over Jurkat parental [1] | geometric mean MFI fold change over Jurkat parental [2] | binding result [3] | binding result (huCLL1-K244-Avi-Tev-His) | binding result (huCLL1-Q244-Avi-Tev-His)
1 | Polypeptide No. 37 (scFv, V domains shown, scFv) VH: QVQLVQSGAEVKKPGASVKVSCKASGYTFTGYYLHWVRQAPGQGLEWMGVISPSGGGTSYAQKFQGRVTMTRDTSTSTVYMELSSLRSEDTAVYYCARAGFGEGVFRHWGQGTLVTVSS VL: not shown | < 2 fold | 2 to 10 fold |  |  | 
2 | Polypeptide No. 8 (scFv, V domains shown, scFv) VH: not shown VL: DIQMTQSPSSLSASVGDRVTITCRASQSVSSFLNWYQQKPGKAPKLLIYAASSLQSGVPSRFSGSGSGTDFTLTISSLQPEDFATYYCQQSYTTPLTFGQGTKVEIKR | 10 to 30 fold | < 2 fold | no binding |  | 
3 | Polypeptide No. 49 (scFv, V domains shown, scFv) VH: EVQLVESGGGLVKPGGSLRLSCAASGFTFSDYALHWVRQAPGKGLEWVSLISGDGGSTYYADSVKGRFTISRDDSKNTLYLQMNSLKTEDTAVYYCARDLGGERSYWGQGTLVTVSS VL: DIQMTQSPSSLSASVGDRVTITCRASQSISTWLAWYQQKPGKAPKLLIYAASTLQSGVPSRFSGSGSGTDFTLTISSLQPEDFATYYCLQDYSYPPTFGQGTKVEIKR |  |  |  | binds | no binding
4 | Polypeptide No. 48 (scFv, V domains shown, scFv) VH: EVQLLESGGGLVQPGGSLRLSCAASGFNFDDYAMHWVRQAPGKGLEWVSVIYSGGSTYYADSVKGRFTISRDNSKNTLYLQMNSLRAEDTAVYYCTRHDFDYWGQGTLVTVSS VL: DIQMTQSPSSLSASVGDRVTITCRASQSISTYVNWYQQKPGKAPKLLIYAASSLQSGVPSRFSGSGSGTDFTLTISSLQPEDFATYYCQQDYSYPYTFGQGTKVEIKR |  |  |  | binds | no binding
5 | Polypeptide No. 9 (scFv, V domains shown, scFv) VH: QVQLVQSGAEVKKPGSSVKVSCKASGGTFSSDAINWVRQAPGQGLEWMGGFDPEDGETIYAQKFQGRVTITADESTSTAYMELSSLRSEDTAVYYCARGPSGYDFEFDYWGQGTLVTVSS VL: DIQMTQSPSSLSASVGDRVTITCRSSRNISHWLAWYQQKPGKAPKLLIYKASSLESGVPSRFSGSGSGTDFTLTISSLQPEDFATYYCQQAISFPLTFGGGTKVEIKR | 2 to 10 fold | < 2 fold | no binding |  | 
6 | Polypeptide No. 6 (scFv, V domains shown, scFv) VH: QVQLVQSGAEVKKPGASVKVSCKASGYTFTAYYTHWVRQAPGQGLEWMGWMNPNSGHTSYAQKFQGRVTMTRDTSTSTVYMELSSLRSEDTAVYYCAREAYDSFDYWGQGTLVTVSS VL: DIQMTQSPSSLSASVGDRVTITCRASQSISSYLNWYQQKPGKAPKLLIYEASTLETGVPSRFSGSGSGTDFTLTISSLQPEDFATYYCQQANSFPFTFGPGTKVDIKR | > 30 fold | < 2 fold | no binding |  | 
7 | Polypeptide No. 46 (scFv, V domains shown, scFv) VH: QVQLVQSGAEVKKPGASVKVSCKASGYTFTSYYMHWVRQAPGQGLEWMGMINPSAGSTSYAQKFQGRVTMTRDTSTSTVYMELSSLRSEDTAVYYCASVDSSGWYAPFDYWGQGTLVTVSS VL: DIQMTQSPSSLSASVGDRVTITCRASQSISTYLNWYQQKPGKAPKLLIYDASNLETGVPSRFSGSGSGTDFTLTISSLQPEDFATYYCQQANSFPPTFGGGTKVEIKR |  |  |  | binds | no binding
8 | Polypeptide No. 20 (scFv, V domains shown, scFv) VH: QVQLVQSGAEVKKPGASVKVSCKASGYMFTGYYIHWVRQAPGQGLEWMGWINPNSGGTNYAQKFQGRVTMTRDTSTSTVYMELSSLRSEDTAVYYCAKDRFGSGNYGYMDVWGKGTTVTVSS VL: DIQMTQSPSSLSASVGDRVTITCRASQSIDRWLAWYQQKPGKAPKLLIYGASSLQSGVPSRFSGSGSGTDFTLTISSLQPEDFATYYCQQSYSTPWTFGQGTRLEIKR | 10 to 30 fold | < 2 fold |  |  | 
9 | Polypeptide No. 47 (scFv, V domains shown, scFv) VH: EVQLLESGGGLVQPGGSLRLSCAASGFTFDEYAMHWVRQAPGKGLEWVSAIGAGGSTYYADSVKGRFTISRDNSKNTLYLQMNSLRAEDTAVYYCASSLGPELRGVDYYYYGMDVWGQGTTVTVSS VL: DIVMTQSPLSLPVTPGEPASISCRSSQSLLHSNGYNYLDWYLQKPGQSPQLLIYAASSLQSGVPDRFSGSGSGTDFTLKISRVEAEDVGVYYCMQGIQWPWTFGQGTKVEIKR |  |  |  | binds | no binding
10 | Polypeptide No. 5 (scFv, V domains shown, scFv) VH: QVQLVQSGAEVKKPGASVKVSCKASGNTFTSYGISWVRQAPGQGLEWMGWINPNSGGTKYAQKFQGRVTMTRDTSTSTVYMELSSLRSEDTAVYYCARESWFGELYYGMDVWGKGTTVTVSS VL: not shown | > 30 fold | < 2 fold | no binding |  | 
11 | Polypeptide No. 10 (scFv, V domains shown, scFv) VH: QVQLVQSGAEVKKPGASVKVSCKASGDTFTTYAISWVRQAPGQGLEWMGWINPNSGVATYANKFQGRVTMTRDTSTSTVYMELSSLRSEDTAVYYCAREGIVGATDAFDIWGQGTMVTVSS VL: not shown | 2 to 10 fold | < 2 fold | no binding |  | 

Other lines, results leading:

Row | geometric mean MFI fold change over Jurkat parental [1] | geometric mean MFI fold change over Jurkat parental [2] | binding result [3] | binding result (huCLL1-K244-Avi-Tev-His) | binding result (huCLL1-Q244-Avi-Tev-His) | Binder
12 | 2 to 10 fold | < 2 fold | no binding |  |  | Polypeptide No. 11 (scFv, V domains shown, scFv) VH: QVQLVQSGAEVKKPGASVKVSCKASGDTFTNHYMHWVRQAPGQGLEWMGWINPNSGGTNYAQKFQGRVTMTRDTSTSTVYMELSSLRSEDTAVYYCARDLVPAAVGGYFDYWGQGTLVTVSS VL: DIQMTQSPSSLSASVGDRVTITCRASQSLGSWLAWYQQKPGKAPKLLIYAASSLQSGVPSRFSGSGSGTDFTLTISSLQPEDFATYYCQQANSFPLTFGQGTKVEIKR
13 |  |  |  | binds | no binding | Polypeptide No. 43 (scFv, V domains shown, scFv) VH: QVQLVQSGAEVKKPGASVKVSCKASGYTFTNYYMHWVRQAPGQGLEWLGWISPYSGDTKYAQTLQGRVTMTRDTSTSTVYMELSSLRSEDTAVYYCARESMDRLDYWGQGTLVTVSS VL: DIQMTQSPSSLSASVGDRVTITCRASQSISTYLNWYQQKPGKAPKLLIYDASNLETGVPSRFSGSGSGTDFTLTISSLQPEDFATYYCQQSYSTPVLTFGGGTKVEIKR
14 | 10 to 30 fold | < 2 fold | no binding |  |  | Polypeptide No. 7 (scFv, V domains shown, scFv) VH: QVQLVQSGAEVKKPGASVKVSCKASGYTFTDYYMHWVRQAPGQGLEWMGWINPNSGGTNYAQKFQGRVTMTRDTSTSTVYMELSSLRSEDTAVYYCARDSRIAVAASSFDYWGQGTLVTVSS VL: DIQMTQSPSSLSASVGDRVTITCRASRGINNWLTWYQQKPGKAPKLLIYGASSLQSGVPSRFSGSGSGTDFTLTISSLQPEDFATYYCQQSYRIPYTFGQGTKLEIKR
15 |  |  |  | binds | no binding | Polypeptide No. 44 (scFv, V domains shown, scFv) VH: EVQLLESGGGLVQPGGSLRLSCAASGFTFSSYAMHWVRQAPGKGLEWVADISGSGGLTYYADSVKGRFTISRDNSKNTLYLQMNSLRAEDTAVYYCAREGDQYSSSSFFDYWGQGTLVTVSS VL: not shown
16 | > 30 fold | < 2 fold |  |  |  | Polypeptide No. 24 (scFv, V domains shown, scFv) VH: QVQLVQSGAEVKKPGSSVKVSCKASGYSFTSYGISWVRQAPGQGLEWLGWISAYNGNTNYGQSLQGRVTITADESTSTAYMELSSLRSEDTAVYYCARARGAGTFFDYWGQGTLVTVSS VL: DIVMTQSPLSLPVTPGEPASISCRSSQSLLHSNGYNYLDWYLQKPGQSPQLLIYDATNLPTGVPDRFSGSGSGTDFTLKISRVEAEDVGVYYCMQALQTPFTFGQGTKLEIKR
17 |  |  |  | binds | no binding | Polypeptide No. 45 (scFv, V domains shown, scFv) VH: EVQLVESGGGLVKPGGSLRLSCAASGFTFDEFGMNWVRQAPGKGLEWISYISGDSGYTNCADSVKGRFTISRDDSKNTLYLQMNSLKTEDTAVYYCAAGYGGYYFDYWGQGTLVTVSS VL: DIQMTQSPSSLSASVGDRVTITCQASQDIDIYLNWYQQKPGKAPKLLIYAASTLESGVPSRFSGSGSGTDFTLTISSLQPEDFATYYCQQSYSTPPTFGGGTKVEIKR
18 | > 30 fold | < 2 fold | no binding |  |  | Polypeptide No. 4 (scFv, V domains shown, scFv) VH: QVQLVQSGAEVKKPGASVKVSCKASGGTFSSYAISWVRQAPGQGLEWMGWINPNSGNTGYAQKFQGRVTMTRDTSTSTVYMELSSLRSEDTAVYYCAREHGDMDVWGQGTTVTVSS VL: EIVMTQSPATLSVSPGERATLSCRASQNINSDLAWYQQKPGQAPRLLIYGASTRATGIPARFSGSGSGTEFTLTISSLQSEDFAVYYCQQYDSLPFTFGPGTKVDIKR
